Where no end group is shown, it is not given here.
Columns and labels:
PDGF-BB [1] = molecular target: T1, PDGF-BB (Homo sapiens, UniProt P01127); experiment: Equilibrium binding of PDGF-BB to FN, FN domains and peptides
Source text: (§1) This led us to speculate that PDGF was binding to the engineered ECM through the H or HV domain since vascular endothelial GF (VEGF), a member of the PDGF superfamily, had been reported to bind H and remain active while bound.
(§2) The survival of FN-null fibroblasts in the presence to PDGF-BB required substrate coated with intact FN or FNIII8-11+a PDGF-binding FN domain. […] To address this directly, we performed equilibrium binding assays with PDGF-BB to FN adsorbed to a surface or coupled to agarose beads. In addition, we also investigated the ability of other growth factors to bind intact FN.

PDGF-BB [2] = molecular target: T1, PDGF-BB; experiment: Surface plasmon resonance kinetic binding of PDGF-BB to FN domains
Source text: VEGF, TGF-β1, PDGF-BB and FGF-2 bound IIICS with similar affinities (KD˜10^−7 M). […] The tested biological activities of GFs bound to a FN functional domain were retained or enhanced. […] In addition, our studies provide important information regarding the delivery of GFs and the sequestering of GFs, as appropriate, for therapeutic (e.g., surgical) or aesthetic indications, including wound healing treatments (where an aim is GF delivery) and cancer treatments (where an aim is GF sequestration). Where FN fragments are used to deliver GFs, they may be described as maintaining, activating, stabilizing or enhancing GF activity. […]

TGF-β1 [3] = molecular target: T2, TGF-β1 (Homo sapiens, UniProt P01137); experiment: Plasmon surface resonance kinetic binding of TGF-β1 to FN domains; conditions: plasmon resonance
T2 sequence (P01137 279-390 limits assumed, species assumed): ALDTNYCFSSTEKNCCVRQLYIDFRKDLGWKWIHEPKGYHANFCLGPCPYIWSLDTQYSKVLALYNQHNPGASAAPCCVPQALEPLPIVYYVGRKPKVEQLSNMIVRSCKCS
Source text: (§3) VEGF, TGF-β1, PDGF-BB and FGF-2 bound IIICS with similar affinities (KD˜10^−7 M). […] The tested biological activities of GFs bound to a FN functional domain were retained or enhanced. […] In addition, our studies provide important information regarding the delivery of GFs and the sequestering of GFs, as appropriate, for therapeutic (e.g., surgical) or aesthetic indications, including wound healing treatments (where an aim is GF delivery) and cancer treatments (where an aim is GF sequestration). Where FN fragments are used to deliver GFs, they may be described as maintaining, activating, stabilizing or enhancing GF activity.
(§4) To determine whether FN domains bind TGF-β1 and bFGF, equilibrium and kinetic binding was performed.

FGF-2 = FGF-2 (Homo sapiens, UniProt P09038); experiment: Plasmon resonance binding of FGF-2 to FN domains
FGF-2, sequence (P09038 143-288): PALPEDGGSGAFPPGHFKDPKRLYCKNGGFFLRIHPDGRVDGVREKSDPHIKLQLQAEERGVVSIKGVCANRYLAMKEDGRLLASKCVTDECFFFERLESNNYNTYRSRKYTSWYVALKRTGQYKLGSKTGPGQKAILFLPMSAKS
Source text: as §3

VEGF = experiment: Plasmon resonance binding of VEGF to FN domains
Source text: as §3

GFs = experiment: Growth factor binding to FN domains (GFs in general)
Source text: as §1

[4] = system: mouse fibroblasts null for FN (FN−/−); experiment: Survival of FN-null fibroblasts on FN domains with PDGF-BB; format: cell-based; conditions: for FN-null cell survival / proliferation with PDGF-BB: FNIII8-11 + the named domain, or named protein; for FN-null cell survival with PDGF: plastic precoated with 0.15 μM GST-tagged FNIII8-11 ± the named domain, or named protein, PDGF-BB added 1 day after plating, 3 days
Source text: To further investigate the response of cells to PDGF-BB bound to FN domains, we investigated the survival response of mouse fibroblasts null for FN (FN−/−). First we determined the response of FN-null cells to PDGF-BB in the absence of serum or other sources of exogenous FN. […] […] […] Importantly, differential response of FN-null cells, plated on different FN domains, to PDGF-BB was not secondary to differences in attachment as judged by cell counts two hours after plating. The FNIII8-11 central cell binding domain was present in all circumstances.

human dermal fibroblasts = experiment: Type 1 collagen production by fibroblasts on FN domain coated plates preincubated with TGF-β1; format: cell-based; conditions: for type 1 collagen production in response to preincubated TGF-β1: plates coated with FNIII8-11 alone or with the named domain
Source text: Therefore, we investigated whether it retained its activity while bound to recombinant FN functional domains. FNIII8-11 was adsorbed on plastic tissue culture dishes at a surface density to maximally affect the attachment and spreading of human dermal fibroblasts with or without the presence of adsorbed FNIII1-2. […] The maximum collagen secretion was approximately 25% of the amount observed when TGF-β1 remained in the medium at the concentrations indicated. […] The numbers of attached and spread cells were essentially identical when fibroblasts were cultures on plates coated with both FNIII8-11 and FNIII1-2 or FNIII8-11 alone. Similar data was obtained when fibroblasts were cultured on plates that had been coated with FNIII8-11 and FNIII12-V15 and then preincubated with TGF-β1.

fibroblast chemotaxis = experiment: Fibroblast chemotaxis to GFs in the presence or absence of FN domains; format: cell-based; conditions: in solution
Experimental: To determine whether FN functional domains modulated TGF-β1, bFGF or PDGF-BB activity in solution, fibroblast chemotaxis was performed in response to the GFs in the presence or absence of FN domains.

ERK = ERK response to PDGF-BB in presence and absence of FNIII1-2; format: cell-based; conditions: preliminary results
Experimental: In preliminary results investigating signal transduction pathway activation of growth factors in the presence of FN GF-binding peptides, the response of ERK to PDGF-BB in the presence and absence of FNIII1-2 was studied. Without FNIII1-2, the ERK response to PDGF-BB was maximum at 20 minutes and gradually diminished over four hrs. In the presence of FNIII 1-2, the ERK response to PDGF-BB, was about 25% greater and sustained for at least four hours.

[5] = molecular target: PDGF-BB binding to FNIII1, FNIII12-14 and IIICS (Homo sapiens, UniProt P01127); experiment: Inhibition of PDGF-BB binding to FN domains by FNIII1 peptides
PDGF-BB binding to FNIII1, FNIII12-14 and IIICS, sequence (P01127 82-190 limits assumed): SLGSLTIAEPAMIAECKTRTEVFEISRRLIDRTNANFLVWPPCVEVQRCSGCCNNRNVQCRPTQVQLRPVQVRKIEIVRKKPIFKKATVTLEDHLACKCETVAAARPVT
Source text: Next, we determined if PDGF-BB-binding peptides from FNIII1 could inhibit PDGF-BB binding to FNIII1, FNIII12-14 and IIICS. For initial experiments we selected peptide 1 and peptide 2. For control, we used scrambled peptide 1.

TGF-β1 [6] = molecular target: T2, TGF-β1; experiment: Equilibrium binding of TGF-β1 to FN, FN domains and peptides; conditions: equilibrium binding
Experimental: These peptides represent domains that follow the sequence pattern [QN]-X(1,2)-[ST]-X(0,1)-[IG]-[QS]-[KRQ]-[YTM]-[IG]-X(4,5)-X(0,1)-[KR]-X(1,2)-X(1,2)-[RT]-X(1,2)-[KQTS]-X(2)-T and that bind TGF-β1 with a certain affinity. […] We know of no other peptides in the human genome database that follow this pattern.
as §4

[7] = molecular target: TGF-β1 binding to any recombinant FN domain (Homo sapiens, UniProt P01137); experiment: Inhibition of TGF-β1 binding to recombinant FN domains
TGF-β1 binding to any recombinant FN domain, sequence (P01137 279-390 limits assumed): as the sequence (P01137 279-390 limits assumed, species assumed) above

[8] = molecular target: bFGF binding to any recombinant FN domain (Homo sapiens, UniProt P09038); experiment: Inhibition of bFGF binding to recombinant FN domains
bFGF binding to any recombinant FN domain, sequence (P09038 134-288 limits assumed): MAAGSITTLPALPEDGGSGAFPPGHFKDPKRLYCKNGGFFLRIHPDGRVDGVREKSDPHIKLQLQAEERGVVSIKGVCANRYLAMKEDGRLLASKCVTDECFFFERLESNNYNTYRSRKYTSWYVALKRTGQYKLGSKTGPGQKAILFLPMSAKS

bFGF = bFGF (Homo sapiens, UniProt P09038); experiment: Equilibrium binding of bFGF (FGF-2) to FN, FN domains and peptides; conditions: equilibrium binding, intact FN; read-out: KD, bFGF (FGF-2) binding
bFGF, sequence (P09038 143-288): as the sequence (P09038 143-288) above
Experimental: as §2, §4

EGF = EGF (Homo sapiens, UniProt P01133); experiment: Binding of EGF to FN, FN domains and peptides
EGF, sequence (P01133 971-1023 limits assumed, species assumed): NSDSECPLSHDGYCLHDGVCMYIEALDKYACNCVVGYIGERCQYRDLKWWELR
Source text: as §3, §2, §4

TGF-α = TGF-α (Homo sapiens, UniProt P01135); experiment: Binding of TGF-α to FN, FN domains and peptides
TGF-α, sequence (P01135 40-89 limits assumed, species assumed): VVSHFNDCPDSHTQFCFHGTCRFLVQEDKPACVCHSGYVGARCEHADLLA
Experimental: as §2, §4

FGF-1 = FGF-1 (Homo sapiens, UniProt P05230); experiment: Binding of FGF-1 to FN, FN domains and peptides
FGF-1, sequence (P05230 whole entry, species assumed, the tested form may be a part): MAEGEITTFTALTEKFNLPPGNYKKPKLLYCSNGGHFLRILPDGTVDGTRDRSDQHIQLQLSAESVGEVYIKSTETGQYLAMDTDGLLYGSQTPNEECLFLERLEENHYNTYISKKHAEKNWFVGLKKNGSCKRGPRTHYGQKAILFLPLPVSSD
Experimental: as §2, §4

CCL-64 mink lung cells = experiment: Inhibition of [3H]-thymidine incorporation by CCL-64 cells by FN-adhered TGF-β; format: cell-based

T1 sequence (P01127 82-190 limits assumed): as the sequence (P01127 82-190 limits assumed) above

| Substance | PDGF-BB binding (in words) (PDGF-BB [1]) | PDGF-BB binding (in words) (PDGF-BB [2]) | TGF-β1 binding (in words) (TGF-β1 [3]) | FGF-2 binding (in words) (FGF-2) | VEGF binding (in words) (VEGF) | also measured |
| --- | --- | --- | --- | --- | --- | --- |
| FN70: 70 kDa amino terminus of FN, includes fibrin and gelatin binding domains | did not | None of the GFs detectably bound | None of the GFs detectably bound | None of the GFs detectably bound | None of the GFs detectably bound | binding of any GF (in words) (GFs): In no case did any GF bind |
| FN630-667: one half of the 76 aa FNIII1 peptide FN630-704 | demonstrated PDGF-BB binding | – | – | – | – | – |
| FN668-704: one half of the 76 aa FNIII1 peptide FN630-704 | demonstrated PDGF-BB binding | – | – | – | – | – |
| FNIII1-2: recombinant FN type III repeats 1-2 | – | all four GFs bound | all four GFs bound | all four GFs bound | all four GFs bound | Kd (PDGF-BB [1]): 37 nM; Kd (PDGF-BB [2]; kinetic binding): 9.1 nM; FN-null cell survival / proliferation with PDGF-BB [4]: enhance survival; type 1 collagen production in response to preincubated TGF-β1 (human dermal fibroblasts): produced type 1 collagen in a dose response fashion; maximum collagen secretion, % of amount when TGF-β1 remained in the medium (human dermal fibroblasts; plates coated with FNIII8-11 and FNIII1-2, preincubated with TGF-β1): approximately 25%; chemotactic activity when assayed alone (fibroblast chemotaxis): no chemotactic activity; enhancement of chemotactic activity of TGF-β1, bFGF and PDGF-BB (fibroblast chemotaxis): enhanced the chemotactic activity; ERK response to PDGF-BB, increase versus without FNIII1-2 (ERK): about 25%; duration of sustained ERK response to PDGF-BB (ERK): at least four |
| FNIII1-11: recombinant FN type III repeats 1-11 | – | bound | bound | did not | did not | FN-null cell survival in the absence of PDGF-BB [4]: survived; FN-null cell survival / proliferation with PDGF-BB [4]: robust proliferation; FN-null cell survival with PDGF [4]: The best survival response |
| FNIII1: recombinant first FN type III repeat | – | all four GFs bound | all four GFs bound | all four GFs bound | all four GFs bound | FN-null cell survival with PDGF [4]: increased survival |
| FNIII2: recombinant second FN type III repeat | – | all four GFs bound | all four GFs bound | all four GFs bound | all four GFs bound | – |
| FNIII8-11: central cell-binding domain of FN containing RGD | did not | None of the GFs detectably bound | None of the GFs detectably bound | None of the GFs detectably bound | None of the GFs detectably bound | binding of any GF (in words) (GFs): In no case did any GF bind; FN-null cell survival with PDGF [4]: failed to survive; support of FN-null fibroblast survival in the presence of PDGF-BB ([4]; substrate coating, FNIII8-11 alone or + named domain): did not support cell survival; type 1 collagen production in response to preincubated TGF-β1 (human dermal fibroblasts): No increase in collagen synthesis |
| FNIII8-V15: FN type III repeats 8 to V15 | – | – | – | – | – | FN-null cell survival / proliferation with PDGF-BB [4]: robust proliferation |
| QLISIQQYGHQEVTRFDFTTTSTST [peptide 2] | – | – | – | – | – | inhibition of PDGF-BB binding to FNIII1, FNIII12-14 and IIICS [5]: neither peptide 2, nor the scramble varient of peptide 1 (FN634-658s), demonstrated inhibition |
| QPSHISKY (Synthetically generated peptide) [FN634-641, 8 aa peptide from FNIII1] | – | – | – | – | – | TGF-β1 binding (in words) (TGF-β1 [6]): minimal binding activity |
| QPSHISKYILRWRPKNSVGRWKEAT [peptide 1] | – | – | – | – | – | Kd (PDGF-BB [1]): 250 nM; inhibition of PDGF-BB binding to FNIII1, FNIII12-14 and IIICS [5]: marked inhibition; inhibition of TGF-β1 binding to any recombinant FN domain [7]: completely inhibited; inhibition of bFGF binding to any recombinant FN domain [8]: completely inhibited |
| anastellin: 76-aa peptide within FNIII1; anti-angiogenic, promotes FN polymerization | demonstrated PDGF-BB binding | bound | bound | bound | all but VEGF bound | – |
| fibronectin [intact FN] | – | – | – | – | – | Kd (PDGF-BB [1]): 49 nM; Kd (TGF-β1 [6]): 53 nM; Kd (bFGF): 44 nM; EGF binding (in words) (EGF): did not; TGF-α binding (in words) (TGF-α): did not; FGF-1 binding (in words) (FGF-1): did not; FN-null cell survival / proliferation with PDGF-BB [4]: robust proliferation; functional activity of TGF-β adhered to FN (CCL-64 mink lung cells): retained full functional activity |
